Values quoted from earlier work in patent US9914774B2, “Notch pathway inhibition” (Genentech, Inc., priority 2014, dated 2018).
Like-named read-outs stand apart in the source and are kept apart here.

Key:
[1] = Phase 1a, patients with solid tumors
[2] = first-in-human phase I, advanced solid tumors

Molecule	patients experienced diarrhea [1]	patients experiencing grade 3 or higher diarrhea [1]	patients experienced diarrhea [2]
59R5: anti-Notch antibody 59R5, described in U.S. Pat. No. 7,919,092	58%	14%	
52M51: anti-Notch1 antibody 52M51, described in U.S. Pat. No. 8,435,513 (antibody, chains of the INN, looked up, V domains shown) VH: QVQLVQSGAEVKKPGASVKISCKVSGYTLRGYWIEWVRQAPGKGLEWIGQILPGTGRTNYNEKFKGRVTMTADTSTDTAYMELSSLRSEDTAVYYCARFDGNYGYYAMDYWGQGTTVTVSS VL: QAVVTQEPSLTVSPGGTVTLTCRSSTGAVTTSNYANWFQQKPGQAPRTLIGGTNNRAPGVPARFSGSLLGGKAALTLSGAQPEDEAEYYCALWYSNHWVFGGGTKLTVL			64%
